According to article PMC3607351 (Structure (London, England : 1993), 2012):

T1: Extracellular cytokine-binding domain of mouse RANK (all four CRDs, residues 1-198) (mouse, UniProt O35305 31-198)
T1 sequence (looked up): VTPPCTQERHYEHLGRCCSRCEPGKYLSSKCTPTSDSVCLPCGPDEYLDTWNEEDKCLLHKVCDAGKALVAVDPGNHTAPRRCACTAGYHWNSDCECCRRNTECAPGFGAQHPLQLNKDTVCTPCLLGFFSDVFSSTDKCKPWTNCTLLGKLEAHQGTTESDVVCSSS

B1: Recombinant mouse RANKL (residues 162-316), receptor-binding ectodomain, trimer (ligand, UniProt O35235-1 162-316, looked up)
chain: QPFAHLTINAASIPSGSHKVTLSSWYHDRGWAKISNMTLSNGKLRVNQDGFYYLYANICFRHHETSGSVPTDYLQLMVYVVKTSIKIPSSHNLMKGGSTKNWSGNSEFHFYSINVGGFFKLRAGEEISIQVSNPSLLDPDQDATYFGAFKVQDID

How the values were obtained:
[1] = biological target: Recombinant mouse RANKL (residues 162-316), receptor-binding ectodomain, trimer (mouse) (UniProt O35235); experiment: SPR
[2] = biological target: T1, Extracellular cytokine-binding domain …; experiment: SPR
[3] = biological target: the molecule itself; experiment: crystal structure

Molecule	fold decrease in affinity against wild-type OPG CRDs [1]	fold slower on-rate than wild-type OPG CRDs [1]	Kd [2]	stoichiometry N [3]
Mouse OPG F96A CRD fragment (CRDs 1 through 4) (from UniProt O08712 22-191) (domain or fragment)	60 fold	30 fold		
B1			2.09 µM	3
